# Measurements reported in the supplement of paper PMC9112550, “Optimization of the antimicrobial peptide Bac7 by deep mutational scanning” (BMC Biology, 2022).
# System: Escherichia coli TOP10
# Experiment: shrunken log2 fold change of peptide-encoding DNA abundance (4.5 h post-induction vs induction); higher = less antimicrobial activity (less host growth inhibition)
# Details: time post-induction: 4.5 h; library: site-saturation at positions 5, 18, 19, 20
# 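Also: peptides expressed intracellularly from a pBAD plasmid library in pooled LB shake-flask culture, induced with 0.3% L-arabinose, DNA abundance read by NGS, three biological replicates, DESeq2 with apeglm shrinkage.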
row,Sequence,shrunken log2 fold change
1,RRIRSRPPRLPRPRPRPYCCPRP,-0.375
2,RRIRKRPPRLPRPRPRPWFNPRP,-0.209
3,RRIRVRPPRLPRPRPRPLYHPRP,-0.677
4,RRIRCRPPRLPRPRPRPLDGPRP,-0.151
5,RRIRPRPPRLPRPRPRPINCPRP,-0.126
6,RRIRFRPPRLPRPRPRPNGMPRP,-0.0957
7,RRIRSRPPRLPRPRPRPESAPRP,0.278
8,RRIRERPPRLPRPRPRPGVFPRP,0.248
9,RRIRQRPPRLPRPRPRPPDAPRP,0.228
10,RRIRWRPPRLPRPRPRPTHNPRP,0.0181
11,RRIRYRPPRLPRPRPRPKVKPRP,-0.233
12,RRIRGRPPRLPRPRPRPEFCPRP,1.23
13,RRIRHRPPRLPRPRPRPPNWPRP,0.494
14,RRIRSRPPRLPRPRPRPMTQPRP,-0.116
15,RRIRGRPPRLPRPRPRPEGIPRP,-0.0235
16,RRIRFRPPRLPRPRPRPAWSPRP,0.116
17,RRIRQRPPRLPRPRPRPWAPPRP,0.0985
18,RRIRLRPPRLPRPRPRPVMPPRP,-0.29
19,RRIRLRPPRLPRPRPRPICGPRP,-0.0025
20,RRIRSRPPRLPRPRPRPFGEPRP,-0.066
21,RRIRMRPPRLPRPRPRPTKRPRP,0.901
22,RRIRWRPPRLPRPRPRPYSRPRP,-0.0788
23,RRIRIRPPRLPRPRPRPCWWPRP,0.082

row,Sequence,shrunken log2 fold change
1,RRIRCRPPRLPRPRPRPLESPRP,0.0242
2,RRIRIRPPRLPRPRPRPDKDPRP,-0.0993
3,RRIRLRPPRLPRPRPRPHTYPRP,-0.257
4,RRIRQRPPRLPRPRPRPPFEPRP,0.333
5,RRIRPRPPRLPRPRPRPAIRPRP,0.0298
6,RRIRKRPPRLPRPRPRPDARPRP,-0.0173
7,RRIRERPPRLPRPRPRPWQGPRP,0.0776
8,RRIRLRPPRLPRPRPRPIKKPRP,0.0365
9,RRIRNRPPRLPRPRPRPTYVPRP,-0.143
10,RRIRLRPPRLPRPRPRPCVIPRP,-0.27
11,RRIRSRPPRLPRPRPRPETIPRP,0.148
12,RRIRKRPPRLPRPRPRPAGGPRP,0.435
13,RRIRYRPPRLPRPRPRPSMGPRP,-0.613
14,RRIRRRPPRLPRPRPRPTNMPRP,-0.0659
15,RRIRVRPPRLPRPRPRPPPPPRP,1
16,RRIRFRPPRLPRPRPRPVSRPRP,-0.145
17,RRIRGRPPRLPRPRPRPNCEPRP,0.376
18,RRIRVRPPRLPRPRPRPMPKPRP,0.0271
19,RRIRVRPPRLPRPRPRPQEWPRP,-0.0187
20,RRIRARPPRLPRPRPRPPQCPRP,0.585
21,RRIRSRPPRLPRPRPRPADDPRP,0.479
22,RRIRRRPPRLPRPRPRPDSAPRP,0.288
23,RRIRDRPPRLPRPRPRPGWQPRP,0.22

row,Sequence,shrunken log2 fold change
1,RRIRFRPPRLPRPRPRPRHKPRP,0.202
2,RRIRYRPPRLPRPRPRPRYNPRP,-0.339
3,RRIRPRPPRLPRPRPRPCMFPRP,-0.577
4,RRIRSRPPRLPRPRPRPMRTPRP,0.654
5,RRIRQRPPRLPRPRPRPARIPRP,-0.0224
6,RRIRHRPPRLPRPRPRPQCEPRP,-0.122
7,RRIRDRPPRLPRPRPRPHHEPRP,0.0131
8,RRIRGRPPRLPRPRPRPQQPPRP,0.423
9,RRIRCRPPRLPRPRPRPSHLPRP,-0.53
10,RRIRTRPPRLPRPRPRPAVNPRP,0.000461
11,RRIRRRPPRLPRPRPRPAQHPRP,0.369
12,RRIRIRPPRLPRPRPRPRIIPRP,-0.199
13,RRIRIRPPRLPRPRPRPTRNPRP,-0.268
14,RRIRVRPPRLPRPRPRPAGNPRP,0.141
15,RRIRNRPPRLPRPRPRPCHSPRP,-0.539
16,RRIRNRPPRLPRPRPRPPHKPRP,-0.136
17,RRIRLRPPRLPRPRPRPKAAPRP,0.679
18,RRIRQRPPRLPRPRPRPRRFPRP,0.222
19,RRIRNRPPRLPRPRPRPFETPRP,0.0215
20,RRIRWRPPRLPRPRPRPSSPPRP,-0.0889
21,RRIRVRPPRLPRPRPRPYASPRP,0.00213
22,RRIRNRPPRLPRPRPRPRDQPRP,-0.0345
23,RRIRCRPPRLPRPRPRPYGDPRP,-0.217

row,Sequence,shrunken log2 fold change
1,RRIRERPPRLPRPRPRPQDSPRP,-0.222
2,RRIRVRPPRLPRPRPRPNIYPRP,-0.25
3,RRIRDRPPRLPRPRPRPQLMPRP,0.419
4,RRIRKRPPRLPRPRPRPLSNPRP,0.436
5,RRIRTRPPRLPRPRPRPEVNPRP,0.131
6,RRIRQRPPRLPRPRPRPWFLPRP,-0.0618
7,RRIRGRPPRLPRPRPRPCKGPRP,-0.0939
8,RRIRQRPPRLPRPRPRPHHTPRP,-0.0489
9,RRIRVRPPRLPRPRPRPKVLPRP,-0.51
10,RRIRTRPPRLPRPRPRPGSQPRP,0.0756
11,RRIRKRPPRLPRPRPRPQSSPRP,-0.0228
12,RRIRHRPPRLPRPRPRPITMPRP,-0.18
13,RRIRLRPPRLPRPRPRPTVDPRP,-0.131
14,RRIRERPPRLPRPRPRPTLYPRP,-0.184
15,RRIRFRPPRLPRPRPRPDVVPRP,-0.181
16,RRIRWRPPRLPRPRPRPCAWPRP,0.0191
17,RRIRIRPPRLPRPRPRPCGTPRP,-0.00435
18,RRIRDRPPRLPRPRPRPGVRPRP,0.502
19,RRIRERPPRLPRPRPRPQVTPRP,-0.118
20,RRIRGRPPRLPRPRPRPGVVPRP,1.43
21,RRIRNRPPRLPRPRPRPRKNPRP,0.161
22,RRIRKRPPRLPRPRPRPHCIPRP,-0.165
